Results on two molecules are retold here after patent US12728152B2, “Growth and differentiation factor 15 for treatment of proliferative vitreoretinopathy therapy” (The Board of Trustees of the Leland Stanford Junior …, priority 2020, dated 2026).

One assay has as its system ESC-NPCs. The assay can be described thus: GDF-11-induced upregulation of EMT marker Fibronectin in ESC-NPCs (immunofluorescence). The following applies: ESC-derived NPCs. It counts as cell-based. Here is the method:
FIG. 1. Smad2 inhibition (A) or simultaneous culture with GDF-15 (B) blocks GDF-11-induced upregulation of EMT marker Fibronectin in ESC-NPCs. Scale bar=100 μm.
(A) ESC-derived NPCs were pre-treated with DMSO or Smad2 inhibitor SB431542 (10 μM) for 1 h and then co-treated with PBS or GDF-11 (50 ng/ml) for another 7 days before harvest. (B) SC-derived NPCs were pre-treated with PBS or GDF-15 (50 ng/ml) for 1 h and then co-treated with PBS or GDF-11 (16.7 ng/ml) for another 7 days before harvest. GDF-15 was added daily while SB431542 and GDF-11 was only added one time in the beginning. Nucleus (DPAI) and EMT (Fibronectin) marker were then detected by immunofluorescence.

The test system of a further assay is ARPE-19 cells. The assay can be described thus: TGFβ-2-induced upregulation of phosph-Smad2 and EMT marker Fibronectin in ARPE-19 cells (Western blot). It counts as cell-based, Human. Particulars: N=3, P<0.05. On the procedure: FIG. 2: Simultaneous culture with GDF-15 reduces TGFβ-2-induced upregulation of phosph-Smad2 (A) and EMT marker Fibronectin (B) in ARPE-19 cells. (N=3, *P<0.05).
(N=3, *P<0.05). Human adult retinal pigment epithelial cells (ARPE-19) were pre-treated with PBS or GDF-15 (50 ng/ml) for 1 h and then co-treated with PBS or TGFβ-2 (1 ng/ml) for another hour (A) or 2 days (B) before harvest. For Fibronection detection, GDF-15 was added daily while TGFβ-2 was only added one time in the beginning. GAPDH (loading control), p-Smad2 and Fibronectin proteins were then detected by Western blot.
(In western blotting, separated proteins are transferred to a membrane and probed.)

As for `NC(=O)c1ccc(-c2nc(-c3ccc4c(c3)OCO4)c(-c3ccccn3)[nH]2)cc1` [SB431542, reference compound], the “GDF-11-induced upregulation of EMT marker Fibronectin” value with ESC-NPCs (SB431542 10 μM pre-treated 1 h, then co-treated with GDF-11 (50 ng/ml) 7 days) is recorded as “blocks”.

B1: GDF-15: secreted ligand of the TGF superfamily of proteins; human GDF-15 protein, SEQ ID NO: 1 (protein, listed as Homo sapiens)
chain: MPGQELRTVNGSQMLLVLLVLSWLPHGGALSLAEASRASFPGPSELHSEDSRFRELRKRYEDLLTRLRANQSWEDSNTDLVPAPAVRILTPEVRLGSGGHLHLRISRAALPEGLPEASRLHRALFRLSPTASRSWDVTRPLRRQLSLARPQAPALHLRLSPPPSQSDQLLAESSSARPQLELHLRPQAARGRRRARARNGDHCPLGPGRCCRLHTVRASLEDLGWADWVLSPREVQVTMCIGACPSQFRAANMHAQIKTSLHRLKPDTVPAPCCVPASYNPMVLIQKTDTGVSLQTYDDLLAKDCHCI
Turning to B1, in the assay with ESC-NPCs (GDF-15 50 ng/ml pre-treated 1 h (added daily), then co-treated with GDF-11 (16.7 ng/ml) 7 days), the “GDF-11-induced upregulation of EMT marker Fibronectin” value is “blocks”. In addition, the “TGFβ-2-induced upregulation of EMT marker Fibronectin” value in the assay on ARPE-19 cells (GDF-15 50 ng/ml pre-treated 1 h (added daily), then co-treated with TGFβ-2 (1 ng/ml) 2 days) was “reduces”. The “TGFβ-2-induced upregulation of phosph-Smad2” value in the assay with ARPE-19 cells (GDF-15 50 ng/ml pre-treated 1 h, then co-treated with TGFβ-2 (1 ng/ml) another hour) is listed as “reduces”.
